In one test the target is HLA-Cw6 on 721.221 cells. Kind of test: flow cytometry on cells (Ig-fusion protein staining). Background: A flow cytometer gives signals particle by particle.
In a further test the target is HLA-Cw3 on 721.221 cells. Described as above.

For the substance “KIR2DS2-Ig (from UniProt P43631) KYK/KFK”, the response with HLA-Cw6 on 721.221 cells is 1.05 MFI; in the test with HLA-Cw3 on 721.221 cells, 114 MFI.
